Results taken from paper PMC12611769, “Phase-separated NDF−FACT condensates facilitate transcription elongation on chromatin” (Nature Cell Biology, 2025).

Columns and labels:
Settings in all cases: both partners purified
Flag-tagged hSpt16 = biological target: T1, Flag-tagged hSpt16 (human, UniProt Q9Y5B9 1-1047); assay: pull-down; Ni-NTA beads, His6-tagged NDF (WT, truncates or mutants; 40 pmol) as bait with 20 pmol Flag-tagged hSpt16 or FACT in 300 µl of 10 mM Tris-HCl pH 7.5, 200 mM NaCl, 0.2% Nonidet P-40, 10% glycerol, 4 °C 3 h; SDS-PAGE, silver staining
T1 construct: human SUPT16H (hSpt16); methods print 'Flag-hSpt16', legends 'Spt16-FLAG'; also called Spt16-FLAG; Flag-hSpt16; source: Sf9 cells (pFastBac-FLAG-hSpt16), purified; also co-expressed with untagged hSSRP1 in Sf9, in cell extract

[1] = biological target: T2, Flag-tagged FACT complex (Flag-hSpt16 + untagged hSSRP1) (human, UniProt Q9Y5B9 1-1047; Q08945 1-709); assay: co-sedimentation; sedimentation assay of condensates: NDF and FACT mixed in a 100 mM NaCl buffer without PEG, 10 min at 22 °C, 17,200g 10 min; supernatant and pellet on SDS-PAGE, Coomassie
T2 construct: human SUPT16H (hSpt16); human SSRP1, untagged; complex formed beforehand by co-expression; also called FACT-FLAG; hFACT; source: Sf9 cells, co-expressed, purified (anti-Flag M2 agarose, 3x Flag peptide elution)

[2] = biological target: T3, FACT complex used as prey in the FLAG pull-down with NDF-Flag (his-FACT) (human, UniProt Q9Y5B9 1-1047; Q08945 1-709); assay: pull-down; Flag M2 beads, NDF-Flag as bait; 10 mM Tris-HCl pH 7.5, 200 mM NaCl, 0.2% Nonidet P-40, 10% glycerol, 4 °C 3 h; SDS-PAGE, silver staining
T3 construct: human SUPT16H (hSpt16); human SSRP1; the his-tagged subunits are surmised because the bait was held on Flag M2 beads; source: Sf9 cells (Bac-to-Bac), his-FACT subunits expressed separately, purified similar to his-hNDF

[3] = biological target: T4, His6-hSpt16 (recombinant his-tagged Spt16 subunit of FACT) (human, UniProt Q9Y5B9 1-1047); assay: as above
T4 construct: human SUPT16H (hSpt16); The His6 tag was inserted into pFastBac-FLAG-hSpt16; also called his-FACT subunit; source: Sf9 cells (Bac-to-Bac), expressed separately, purified similar to his-hNDF
T4 sequence (Q9Y5B9 whole entry): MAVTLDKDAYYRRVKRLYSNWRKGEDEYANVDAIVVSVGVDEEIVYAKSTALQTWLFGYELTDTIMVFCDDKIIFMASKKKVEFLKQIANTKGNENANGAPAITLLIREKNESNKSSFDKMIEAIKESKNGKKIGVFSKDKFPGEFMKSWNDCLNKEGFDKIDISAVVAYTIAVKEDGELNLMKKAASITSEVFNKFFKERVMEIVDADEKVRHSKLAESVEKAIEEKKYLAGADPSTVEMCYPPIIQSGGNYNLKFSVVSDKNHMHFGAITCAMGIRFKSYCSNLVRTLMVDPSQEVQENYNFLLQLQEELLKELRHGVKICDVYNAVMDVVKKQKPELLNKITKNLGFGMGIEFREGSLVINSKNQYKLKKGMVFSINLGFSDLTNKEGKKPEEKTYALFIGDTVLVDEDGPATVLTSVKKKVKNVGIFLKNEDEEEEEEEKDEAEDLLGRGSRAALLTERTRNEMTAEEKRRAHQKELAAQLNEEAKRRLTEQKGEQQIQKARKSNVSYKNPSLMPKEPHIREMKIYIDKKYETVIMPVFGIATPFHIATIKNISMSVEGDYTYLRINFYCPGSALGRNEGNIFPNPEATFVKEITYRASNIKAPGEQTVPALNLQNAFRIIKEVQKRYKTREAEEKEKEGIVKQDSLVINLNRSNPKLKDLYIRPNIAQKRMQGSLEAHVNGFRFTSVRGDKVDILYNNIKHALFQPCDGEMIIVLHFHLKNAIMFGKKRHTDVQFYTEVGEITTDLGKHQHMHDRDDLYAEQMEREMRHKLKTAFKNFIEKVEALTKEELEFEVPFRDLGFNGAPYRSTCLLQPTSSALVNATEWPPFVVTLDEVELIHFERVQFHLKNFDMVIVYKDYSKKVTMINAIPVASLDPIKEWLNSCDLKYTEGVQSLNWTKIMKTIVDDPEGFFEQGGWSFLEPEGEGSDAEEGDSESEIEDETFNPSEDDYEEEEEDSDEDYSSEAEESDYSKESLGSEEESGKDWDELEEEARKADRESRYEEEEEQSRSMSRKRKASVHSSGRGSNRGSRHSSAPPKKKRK

T1 sequence (Q9Y5B9 whole entry, the tested form may be a part): as the sequence (Q9Y5B9 whole entry) above
T3 sequence (Q9Y5B9 whole entry, chain 1 of 2): as the sequence (Q9Y5B9 whole entry) above
T3 sequence (Q08945 whole entry, chain 2 of 2): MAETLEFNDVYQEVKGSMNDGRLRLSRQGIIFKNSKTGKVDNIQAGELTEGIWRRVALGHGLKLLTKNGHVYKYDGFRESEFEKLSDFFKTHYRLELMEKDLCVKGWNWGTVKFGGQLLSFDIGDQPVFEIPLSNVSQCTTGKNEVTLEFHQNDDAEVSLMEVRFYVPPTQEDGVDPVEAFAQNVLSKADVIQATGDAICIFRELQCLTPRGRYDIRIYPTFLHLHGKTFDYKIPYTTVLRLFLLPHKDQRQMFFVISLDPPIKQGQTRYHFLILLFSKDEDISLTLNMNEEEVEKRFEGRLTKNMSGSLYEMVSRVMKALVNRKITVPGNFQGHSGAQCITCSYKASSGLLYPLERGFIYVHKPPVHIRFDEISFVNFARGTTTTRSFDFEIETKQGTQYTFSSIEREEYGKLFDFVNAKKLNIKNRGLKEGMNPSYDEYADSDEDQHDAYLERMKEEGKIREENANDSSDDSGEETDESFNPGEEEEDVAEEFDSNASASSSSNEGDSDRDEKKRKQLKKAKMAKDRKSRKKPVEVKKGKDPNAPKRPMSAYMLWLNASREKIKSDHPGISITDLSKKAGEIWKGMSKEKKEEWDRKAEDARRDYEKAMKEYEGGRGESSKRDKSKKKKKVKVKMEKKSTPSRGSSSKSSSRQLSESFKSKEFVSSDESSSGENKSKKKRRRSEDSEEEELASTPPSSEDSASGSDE
T2 sequence (Q9Y5B9 whole entry, chain 1 of 2): as the sequence (Q9Y5B9 whole entry) above
T2 sequence (Q08945 whole entry, chain 2 of 2): as the sequence (Q08945 whole entry, chain 2 of 2) above

B1: NDF_K161A, full-length, His6-tagged (natural protein, human, UniProt Q49A26 1-553, looked up)
chain: MAAVSLRLGDLVWGKLGRYPPWPGKIVNPPKDLKKPRGKKCFFVKFFGTEDHAWIKVEQLKPYHAHKEEMIKINKGKRFQQAVDAVEEFLRRAKGKDQTSSHNSSDDKNRRNSSEERSRPNSGDEKRKLSLSEGKVKKNMGEGKKRVSSGSSERGSKSPLARAQEQSPRKRGRPPKDEKDLTIPESSTVKGMMAGPMAAFKWQPTASEPVKDADPHFHHFLLSQTEKPAVCYQAITKKLKICEEETGSTSIQAADSTAVNGSITPTDKKIGFLGLGLMGSGIVSNLLKMGHTVTVWNRTAEKCDLFIQEGARLGRTPAEVVSTCDITFACVSDPKAAKDLVLGPSGVLQGIRPGKCYVDMSTVDADTVTELAQVIVSRGGRFLEAPVSGNQQLSNDGMLVILAAGDRGLYEDCSSCFQAMGKTSFFLGEVGNAAKMMLIVNMVQGSFMATIAEGLTLAQVTGQSQQTLLDILNQGQLASIFLDQKCQNILQGNFKPDFYLKYIQKDLRLAIALGDAVNHPTPMAAAANEVYKRAKALDQSDNDMSAVYRAYIH
notes: human NDF (Glyr1), full-length, K161A; source: bacterial expression (pET21b), purified
B1: binds (Flag-tagged hSpt16).

B2: NDF_R162A, full-length, His6-tagged (natural protein, human, UniProt Q49A26 1-553, looked up)
chain: MAAVSLRLGDLVWGKLGRYPPWPGKIVNPPKDLKKPRGKKCFFVKFFGTEDHAWIKVEQLKPYHAHKEEMIKINKGKRFQQAVDAVEEFLRRAKGKDQTSSHNSSDDKNRRNSSEERSRPNSGDEKRKLSLSEGKVKKNMGEGKKRVSSGSSERGSKSPLKAAQEQSPRKRGRPPKDEKDLTIPESSTVKGMMAGPMAAFKWQPTASEPVKDADPHFHHFLLSQTEKPAVCYQAITKKLKICEEETGSTSIQAADSTAVNGSITPTDKKIGFLGLGLMGSGIVSNLLKMGHTVTVWNRTAEKCDLFIQEGARLGRTPAEVVSTCDITFACVSDPKAAKDLVLGPSGVLQGIRPGKCYVDMSTVDADTVTELAQVIVSRGGRFLEAPVSGNQQLSNDGMLVILAAGDRGLYEDCSSCFQAMGKTSFFLGEVGNAAKMMLIVNMVQGSFMATIAEGLTLAQVTGQSQQTLLDILNQGQLASIFLDQKCQNILQGNFKPDFYLKYIQKDLRLAIALGDAVNHPTPMAAAANEVYKRAKALDQSDNDMSAVYRAYIH
notes: human NDF (Glyr1), full-length, R162A; source: bacterial expression (pET21b), purified
B2: binds (Flag-tagged hSpt16).

B3: His6-hNDF, full-length wild type (natural protein, human, UniProt Q49A26 1-553, looked up)
chain: MAAVSLRLGDLVWGKLGRYPPWPGKIVNPPKDLKKPRGKKCFFVKFFGTEDHAWIKVEQLKPYHAHKEEMIKINKGKRFQQAVDAVEEFLRRAKGKDQTSSHNSSDDKNRRNSSEERSRPNSGDEKRKLSLSEGKVKKNMGEGKKRVSSGSSERGSKSPLKRAQEQSPRKRGRPPKDEKDLTIPESSTVKGMMAGPMAAFKWQPTASEPVKDADPHFHHFLLSQTEKPAVCYQAITKKLKICEEETGSTSIQAADSTAVNGSITPTDKKIGFLGLGLMGSGIVSNLLKMGHTVTVWNRTAEKCDLFIQEGARLGRTPAEVVSTCDITFACVSDPKAAKDLVLGPSGVLQGIRPGKCYVDMSTVDADTVTELAQVIVSRGGRFLEAPVSGNQQLSNDGMLVILAAGDRGLYEDCSSCFQAMGKTSFFLGEVGNAAKMMLIVNMVQGSFMATIAEGLTLAQVTGQSQQTLLDILNQGQLASIFLDQKCQNILQGNFKPDFYLKYIQKDLRLAIALGDAVNHPTPMAAAANEVYKRAKALDQSDNDMSAVYRAYIH
notes: human nucleosome destabilizing factor (NDF; Glyr1), full-length; vector name has His6 before hNDF, a legend prints 'NDF-his'; also called NDF-his; His6-tagged NDF-WT; source: bacterial expression (pET21b-His6-hNDF), purified as previously described
B3: binds [1]; binds (Flag-tagged hSpt16).

B4: hNDF-FLAG (recombinant NDF-Flag) (natural protein, human, UniProt Q49A26 1-553, looked up)
chain: MAAVSLRLGDLVWGKLGRYPPWPGKIVNPPKDLKKPRGKKCFFVKFFGTEDHAWIKVEQLKPYHAHKEEMIKINKGKRFQQAVDAVEEFLRRAKGKDQTSSHNSSDDKNRRNSSEERSRPNSGDEKRKLSLSEGKVKKNMGEGKKRVSSGSSERGSKSPLKRAQEQSPRKRGRPPKDEKDLTIPESSTVKGMMAGPMAAFKWQPTASEPVKDADPHFHHFLLSQTEKPAVCYQAITKKLKICEEETGSTSIQAADSTAVNGSITPTDKKIGFLGLGLMGSGIVSNLLKMGHTVTVWNRTAEKCDLFIQEGARLGRTPAEVVSTCDITFACVSDPKAAKDLVLGPSGVLQGIRPGKCYVDMSTVDADTVTELAQVIVSRGGRFLEAPVSGNQQLSNDGMLVILAAGDRGLYEDCSSCFQAMGKTSFFLGEVGNAAKMMLIVNMVQGSFMATIAEGLTLAQVTGQSQQTLLDILNQGQLASIFLDQKCQNILQGNFKPDFYLKYIQKDLRLAIALGDAVNHPTPMAAAANEVYKRAKALDQSDNDMSAVYRAYIH
notes: human nucleosome destabilizing factor (NDF; Glyr1); source: bacterial expression (pET21b-hNDF-FLAG), purified as previously described
B4: binds [2]; binds [3].
